From the supplement of paper PMC5998384 come the findings set out here.

Data set [1] deals with HeLa Kyoto. Kind of data set: solubility in G1/S (NP-40 vs SDS abundance) (log2 ratio); higher = more soluble. The settings on record: cell cycle stage: G1/S.
Data set [2] relates to HeLa Kyoto. The data set can be described thus: melting temperature (median over replicates), in situ; higher = more thermally stable.
Data set [3] deals with HeLa Kyoto. Kind of data set: solubility change mitosis vs G1/S (difference of NP-40 vs SDS log2 ratios) (log2 ratio difference); higher = more soluble in mitosis.
The test system of data set [4] is HeLa Kyoto. Kind of data set: thermal stability score vs G1/S (z-score of summed log2 fold changes over temperatures); higher = more thermally stable than in G1/S.
Where [5] appears, read: cell cycle stage: early G1 (4.5 h after nocodazole release).
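Wherever melting temperature (median over replicates), in situ is given: HeLa Kyoto cells synchronized by double thymidine or nocodazole block, proteins quantified by TMT10plex mass spectrometry, three independent biological replicates.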
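Wherever solubility change mitosis vs G1/S (difference of NP-40 vs SDS log2 ratios) is given: synchronized HeLa Kyoto cells (double thymidine block for G1/S, nocodazole release for mitosis), protein amounts in NP-40 versus SDS lysates quantified by mass spectrometry, three biological replicates.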
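Wherever solubility in G1/S (NP-40 vs SDS abundance) is given: HeLa Kyoto cells arrested at G1/S by double thymidine block, proteins quantified by TMT10plex mass spectrometry in mild NP-40 versus SDS extracts, three biological replicates.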
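Wherever thermal stability score vs G1/S (z-score of summed log2 fold changes over temperatures) is given: synchronized HeLa Kyoto cells, proteins quantified by TMT10plex mass spectrometry, three biological replicates, mitosis taken 0.5 h after nocodazole release, G1/S directly after double thymidine block.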

Consider “MGPLSARLLMQRGRPKSDRLGKIRSLDLSGLELLSEHLDPKLLCRLTQLQELDLSNNHLETLPDNLGLSHLRVLRCANNQLGDVTALCQFPKLEELSLEGNPFLTVNDNLKVSFLLPTLRKVNGKDASSTYSQVENLNRELTSRVTAHWEKFMATLGPEEEAEKAQADFVKSAVRDVRYGPESLSEFTQWRVRMISEELVAASRTQVQKANSPEKPPEAGAAHKPRARLAALKRPDDVPLSLSPSKRACASPSAQVEGSPVAGSDGSQPAVKLEPLHFLQCHSKNNSPQDLETQLWACAFEPAWEEGATSQTVATCGGEAVCVIDCQTGIVLHKYKAPGEEFFSVAWTALMVVTQAGHKKRWSVLAAAGLRGLVRLLHVRAGFCCGVIRAHKKAIATLCFSPAHETHLFTASYDKRIILWDIGVPNQDYEFQASQLLTLDTTSIPLRLCPVASCPDARLLAGCEGGCCCWDVRLDQPQKRRVCEVEFVFSEGSEASGRRVDGLAFVNEDIVASKGSGLGTICLWSWRQTWGGRGSQSTVAVVVLARLQWSSTELAYFSLSACPDKGIVLCGDEEGNVWLYDVSNILKQPPLLPAALQAPTQILKWPQPWALGQVVTKTMVNTVVANASFTYLTALTDSNIVAIWGRM [LRWD1]”, for which, in data set [1], the “solubility in G1/S (log2)” value was -0.185. In addition, the melting temperature in data set [2] (cell cycle stage: G1/S) worked out at 48 °C; in data set [2] (cell cycle stage: mitosis), 49.1 °C. In addition, the “solubility change mitosis (log2)” value in data set [3] was -0.0674. The figures for the thermal stability score in data set [4] (setting [5]) and in data set [4] (cell cycle stage: mitosis) were 1.14 and 1.7, respectively.
Consider “MAAQSSLYNDDRNLLRIREKERRNQEAHQEKEAFPEKIPLFGEPYKTAKGDELSSRIQNMLGNYEEVKEFLSTKSHTHRLDASENRLGKPKYPLIPDKGSSIPSSSFHTSVHHQSIHTPASGPLSVGNISHNPKMAQPRTEPMPSLHAKSCGPPDSQHLTQDRLGQEGFGSSHHKKGDRRADGDHCASVTDSAPERELSPLISLPSPVPPLSPIHSNQQTLPRTQGSSKVHGSSNNSKGYCPAKSPKDLAVKVHDKETPQDSLVAPAQPPSQTFPPPSLPSKSVAMQQKPTAYVRPMDGQDQAPSESPELKPLPEDYRQQTFEKTDLKVPAKAKLTKLKMPSQSVEQTYSNEVHCVEEILKEMTHSWPPPLTAIHTPSTAEPSKFPFPTKDSQHVSSVTQNQKQYDTSSKTHSNSQQGTSSMLEDDLQLSDSEDSDSEQTPEKPPSSSAPPSAPQSLPEPVASAHSSSAESESTSDSDSSSDSESESSSSDSEENEPLETPAPEPEPPTTNKWQLDNWLTKVSQPAAPPEGPRSTEPPRRHPESKGSSDSATSQEHSESKDPPPKSSSKAPRAPPEAPHPGKRSCQKSPAQQEPPQRQTVGTKQPKKPVKASARAGSRTSLQGEREPGLLPYGSRDQTSKDKPKVKTKGRPRAAASNEPKPAVPPSSEKKKHKSSLPAPSKALSGPEPAKDNVEDRTPEHFALVPLTESQGPPHSGSGSRTSGCRQAVVVQEDSRKDRLPLPLRDTKLLSPLRDTPPPQSLMVKITLDLLSRIPQPPGKGSRQRKAEDKQPPAGKKHSSEKRSSDSSSKLAKKRKGEAERDCDNKKIRLEKEIKSQSSSSSSSHKESSKTKPSRPSSQSSKKEMLPPPPVSSSSQKPAKPALKRSRREADTCGQDPPKSASSTKSNHKDSSIPKQRRVEGKGSRSSSEHKGSSGDTANPFPVPSLPNGNSKPGKPQVKFDKQQADLHMREAKKMKQKAELMTDRVGKAFKYLEAVLSFIECGIATESESQSSKSAYSVYSETVDLIKFIMSLKSFSDATAPTQEKIFAVLCMRCQSILNMAMFRCKKDIAIKYSRTLNKHFESSSKVAQAPSPCIASTGTPSPLSPMPSPASSVGSQSSAGSVGSSGVAATISTPVTIQNMTSSYVTITSHVLTAFDLWEQAEALTRKNKEFFARLSTNVCTLALNSSLVDLVHYTRQGFQQLQELTKTP [AFF1]”, for which the “solubility in G1/S (log2)” value in data set [1] was -0.222. In addition, the melting temperature in data set [2] (cell cycle stage: G1/S) worked out at 49.6 °C; in data set [2] (cell cycle stage: mitosis), 51.8 °C. For the same sequence, the “solubility change mitosis (log2)” value in data set [3] was 0.121. The thermal stability score was 0.0483 in data set [4] (setting [5]) and -0.483 in data set [4] (cell cycle stage: mitosis).
For “MPHLENVVLCRESQVSILQSLFGERHHFSFPSIFIYGHTASGKTYVTQTLLKTLELPHVFVNCVECFTLRLLLEQILNKLNHLSSSEDGCSTEITCETFNDFVRLFKQVTTAENLKDQTVYIVLDKAEYLRDMEANLLPGFLRLQELADRNVTVLFLSEIVWEKFRPNTGCFEPFVLYFPDYSIGNLQKILSHDHPPEYSADFYAAYINILLGVFYTVCRDLKELRHLAVLNFPKYCEPVVKGEASERDTRKLWRNIEPHLKKAMQTVYLREISSSQWEKLQKDDTDPGQLKGLSAHTHVELPYYSKFILIAAYLASYNPARTDKRFFLKHHGKIKKTNFLKKHEKTSNHLLGPKPFPLDRLLAILYSIVDSRVAPTANIFSQITSLVTLQLLTLVGHDDQLDGPKYKCTVSLDFIRAIARTVNFDIIKYLYDFL [ORC5]”, the “solubility in G1/S (log2)” value in data set [1] was -0.362. Further, the melting temperature in data set [2] (cell cycle stage: G1/S) is 47.1 °C; in data set [2] (cell cycle stage: mitosis), 49 °C. The “solubility change mitosis (log2)” value in data set [3] was -0.126. In addition, the results for the thermal stability score in data set [4] (setting [5]) and in data set [4] (cell cycle stage: mitosis) were 0.957 and 1.24, respectively.
On to “MGEIEQRPTPGSRLGAPENSGISTLERGQKPPPTPSGKLVSIKIQMLDDTQEAFEVPQRAPGKVLLDAVCNHLNLVEGDYFGLEFPDHKKITVWLDLLKPIVKQIRRPKHVVVKFVVKFFPPDHTQLQEELTRYLFALQVKQDLAQGRLTCNDTSAALLISHIVQSEIGDFDEALDREHLAKNKYIPQQDALEDKIVEFHHNHIGQTPAESDFQLLEIARRLEMYGIRLHPAKDREGTKINLAVANTGILVFQGFTKINAFNWAKVRKLSFKRKRFLIKLRPDANSAYQDTLEFLMASRDFCKSFWKICVEHHAFFRLFEEPKPKPKPVLFSRGSSFRFSGRTQKQVLDYVKEGGHKKVQFERKHSKIHSIRSLASQPTELNSEVLEQSQQSTSLTFGEGAESPGGQSCRRGKEPKVSAGEPGSHPSPAPRRSPAGNKQADGAASAPTEEEEEVVKDRTQQSKPQPPQPSTGSLTGSPHLSELSVNSQGGVAPANVTLSPNLSPDTKQASPLISPLLNDQACPRTDDEDEGRRKRFPTDKAYFIAKEVSTTERTYLKDLEVITSWFQSTVSKEDAMPEALKSLIFPNFEPLHKFHTNFLKEIEQRLALWEGRSNAQIRDYQRIGDVMLKNIQGMKHLAAHLWKHSEALEALENGIKSSRRLENFCRDFELQKVCYLPLNTFLLRPLHRLMHYKQVLERLCKHHPPSHADFRDCRAALAEITEMVAQLHGTMIKMENFQKLHELKKDLIGIDNLVVPGREFIRLGSLSKLSGKGLQQRMFFLFNDVLLYTSRGLTASNQFKVHGQLPLYGMTIEESEDEWGVPHCLTLRGQRQSIIVAASSRSEMEKWVEDIQMAIDLAEKSSSPAPEFLASSPPDNKSPDEATAADQESEDDLSASRTSLERQAPHRGNTMVHVCWHRNTSVSMVDFSIAVENQLSGNLLRKFKNSNGWQKLWVVFTNFCLFFYKSHQDNHPLASLPLLGYSLTIPSESENIQKDYVFKLHFKSHVYYFRAESEYTFERWMEVIRSATSSASRPHVLSHKESLVY [FARP1]”, for which the “solubility in G1/S (log2)” value in data set [1] is -0.198. Also, the melting temperature in data set [2] (cell cycle stage: G1/S) came out at 49.2 °C; in data set [2] (cell cycle stage: mitosis), 49.1 °C. For the same sequence, the “solubility change mitosis (log2)” value in data set [3] is -0.0824. The thermal stability score is 1.1 in data set [4] (setting [5]) and 2.25 in data set [4] (cell cycle stage: mitosis).
As for “MGILSITDQPPLVQAIFSRDVEEVRSLLSQKENINVLDQERRTPLHAAAYVGDVPILQLLLMSGANVNAKDTLWLTPLHRAAASRNEKVLGLLLAHSADVNARDKLWQTPLHVAAANRATKCAEALAPLLSSLNVADRSGRSALHHAVHSGHLETVNLLLNKGASLNVCDKKERQPLHWAAFLGHLEVLKLLVARGADLGCKDRKGYGLLHTAAASGQIEVVKYLLRMGAEIDEPNAFGNTALHIACYLGQDAVAIELVNAGANVNQPNDKGFTPLHVAAVSTNGALCLELLVNNGADVNYQSKEGKSPLHMAAIHGRFTRSQILIQNGSEIDCADKFGNTPLHVAARYGHELLISTLMTNGADTARRGIHDMFPLHLAVLFGFSDCCRKLLSSGQLYSIVSSLSNEHVLSAGFDINTPDNLGRTCLHAAASGGNVECLNLLLSSGADLRRRDKFGRTPLHYAAANGSYQCAVTLVTAGAGVNEADCKGCSPLHYAAASDTYRRAEPHTPSSHDAEEDEPLKESRRKEAFFCLEFLLDNGADPSLRDRQGYTAVHYAAAYGNRQNLELLLEMSFNCLEDVESTIPVSPLHLAAYNGHCEALKTLAETLVNLDVRDHKGRTALFLATERGSTECVEVLTAHGASALIKERKRKWTPLHAAAASGHTDSLHLLIDSGERADITDVMDAYGQTPLMLAIMNGHVDCVHLLLEKGSTADAADLRGRTALHRGAVTGCEDCLAALLDHDAFVLCRDFKGRTPIHLASACGHTAVLRTLLQAALSTDPLDAGVDYSGYSPMHWASYTGHEDCLELLLEHSPFSYLEGNPFTPLHCAVINNQDSTTEMLLGALGAKIVNSRDAKGRTPLHAAAFADNVSGLRMLLQHQAEVNATDHTGRTALMTAAENGQTAAVEFLLYRGKADLTVLDENKNTALHLACSKGHEKCALMILAETQDLGLINATNSALQMPLHIAARNGLASVVQALLSHGATVLAVDEEGHTPALACAPNKDVADCLALILSTMKPFPPKDAVSPFSFSLLKNCSIAAAKTVGGCGALPHGASCPYSQERPGAIGLDGCYSE [ANKRD52]”, the “solubility in G1/S (log2)” value in data set [1] is -0.0981. Besides, the melting temperature amounted to 51.5 °C in data set [2] (cell cycle stage: G1/S) and 49.7 °C in data set [2] (cell cycle stage: mitosis). Further, in data set [3], the “solubility change mitosis (log2)” value is -0.171. Besides, the thermal stability score was -0.0695 in data set [4] (setting [5]) and 0.105 in data set [4] (cell cycle stage: mitosis).
